Laboratory results taken from article doi:10.1101/2022.05.31.494220.
Substitutions are numbered along the chain they refer to. Names and notes keep the numbering of the source. Each block holds one binder with its values, some of them ahead of it.

Biological target: peptide encoding HTP-3 closure motif #4 (C. elegans)
Assay: fluorescence polarisation

Kd: 0.22 µM
B1: HIM-3 (wildtype) (natural protein)
chain: ATKEQIVEHRESEIPIASQWKATFPVDLEIEKNSEMFALRYIKCASAFILDRRGILDEKCFKTRTIDKLLVTAFQSSVPAAKRVSSTFDGLRDAIQQGYLREFAIVFYKKPNEEDINEVFAFRFAYGDEGEIFVSLNNGIDTNESSQELLQAKFVDTDNTKQMFASTIKKLHRCIKKMEPLPQGSDASFRVSYTEKAPKDYTPEGYLLSPMFYTLNQDIRKASIGIVCGGHHKIQMLAASQYLKQDFDLDKTTTLNPNMSIMANQSKRKGRISRDSPYGLSQGITKKNKD

Kd: 0.69 µM
B2: HIM-3^R93Y (natural protein)
chain: B1 chain with R92Y
